For orientation: Kd means the free concentration of one partner at which half of the binding sites on the other are occupied at equilibrium, for simple one-to-one binding. Read a low Kd as higher affinity.

The results in this text go back to paper PMC11966256.

Series [1] has as its target Cy5-HsLARP6(73-183)G74C La domain (Homo sapiens, UniProt Q9BRS8, G74C). Put plainly: MST.
Series [2] concerns the target HsLARP6(84-183) La domain (Homo sapiens, UniProt Q9BRS8). Put plainly: analytical SEC.
In series [3] the target is HsLARP6(73-183) La domain (Homo sapiens, UniProt Q9BRS8). Put plainly: analytical SEC.

B1: 5'SL RNA (a2(I)), 48 nt (structured_RNA)
RNA: GGCACAAGGAGUCUGCAUGUCUAAGUGCUAGACAUGCUCAGCUUUGUG
Take B1: the Kd in series [1] amounted to 4.87 ± 0.15 nM. The binding result in series [2] and in series [3] was “binds” in each case.
